Values joined by “and” are separate entries in the source; they are usually repeats but may differ in a detail not shown here. Identical values can stand only once. Like-named read-outs stand apart in the source and are kept apart here.
What was measured:
[1] = molecular target: polypeptides with a terminal leucine residue
[2] = molecular target: polypeptides with a terminal leucine residue; assay: single-molecule dwell time analysis
[3] = molecular target: polypeptides with a terminal leucine residue; remark: listed apart in the source
[4] = molecular target: … peptide containing N-terminal phenylalanine; assay: table of pulse statistics of the single-molecule recognition experiment
[5] = molecular target: … peptide containing N-terminal phenylalanine; assay: single-molecule recognition of immobilized peptide, 500 nM of each binder
[6] = molecular target: peptide having an N-terminal tyrosine residue; assay: single-molecule dwell time analysis, distribution of mean pulse durations, panel Tyr; filtered 0.00s≤dur≤20.00s and magnitude above baseline > 15.0
[7] = molecular target: polypeptides with a terminal leucine residue; assay: single-molecule dwell time analysis, distribution of mean pulse durations, panel Leu; filtered 0.00s≤dur≤20.00s and magnitude above baseline > 15.0
[8] = molecular target: peptide having an N-terminal phenylalanine residue; assay: single-molecule dwell time analysis, distribution of mean pulse durations, panel Phe; filtered 0.00s≤dur≤20.00s and magnitude above baseline > 15.0
[9] = molecular target: peptide having an N-terminal tryptophan residue; assay: single-molecule dwell time analysis, distribution of mean pulse durations, panel Trp; filtered 0.00s≤dur≤20.00s and magnitude above baseline > 15.0

B1: ClpS from Thermosynochoccus elongatus (teClpS), labeled (protein)
chain: MPQERQQVTRKHYPNYKVIVLNDDFNTFQHVAACLMKYIPNMTSDRAWELTNQVHYEGQAIVWVGPQEQAELYHEQLLRAGLTMAPLEPE
- pulse duration M [1]: 0.46 s and 0.63 s
- pulse duration Mo [1]: 0.5 s
- pulse duration µ [1]: 0.74 s and 0.82 s
- mean pulse duration [2]: 0.71 s
- pulse duration M [3]: 0.43 s and 0.5 s
- pulse duration µ [3]: 0.68 s and 0.65 s

B2: at ClpS1 (Agrobacterium tumifaciens ClpS1) labeled with Cy3, Q8UFN4 1-117 (protein)
chain: MIAEPICMQGEGDGEDGGTNRGTSVITRVKPKTKRPNLYRVLLLNDDYTPMEFVIHILERFFQKDREAATRIMLHVHQHGVGECGVFTYEVAETKVSQVMDFARQHQHPLQCVMEKK
- N pulses [4]: 98
- median pulse width [4]: 0.63 s
- mean pulse duration [5]: 1.3 s
- pulse rate [5]: 8.1 pulses/min

B3: A. tumefaciens ClpS1 (protein)
chain: B2 chain
- mean pulse duration (value at the dashed line) [6]: 0.69 s
- mean pulse duration (value at the dashed line) [7]: 0.31 s
- mean pulse duration (value at the dashed line) [8]: 0.59 s
- mean pulse duration (value at the dashed line) [9]: 0.34 s
